Reference: patent US20240374671A1 (ACCELERON PHARMA, published 2024)

T1: dimeric hActRIIB (human, UniProt Q13705 25-130)
T1 construct: also called ActRIIB DIMER; ActRIIB dimer
T1 sequence: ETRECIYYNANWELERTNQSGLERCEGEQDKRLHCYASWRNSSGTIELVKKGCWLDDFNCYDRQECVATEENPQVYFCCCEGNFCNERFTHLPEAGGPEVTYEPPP

T2: monomeric hActRIIB (human, UniProt Q13705 25-130, limits assumed)
T2 construct: also called ActRIIB MONOMER; ActRIIB monomer
T2 sequence: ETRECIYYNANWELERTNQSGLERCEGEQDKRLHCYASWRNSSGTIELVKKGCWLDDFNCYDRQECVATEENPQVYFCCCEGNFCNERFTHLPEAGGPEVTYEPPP


How the values were obtained:
[1] = molecular target: T3, dimeric hActRIIA (human, UniProt P27037 21-138); assay: SPR (Biacore), 37 C
T3 construct: also called ActRIIA DIMER; ActRIIA dimer
T3 sequence (P27037 21-138): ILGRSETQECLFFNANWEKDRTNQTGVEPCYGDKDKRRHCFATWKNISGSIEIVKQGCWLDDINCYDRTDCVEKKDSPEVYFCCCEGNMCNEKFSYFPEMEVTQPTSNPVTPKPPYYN

[2] = molecular target: T4, monomeric hActRIIA (human, UniProt P27037 21-138, limits assumed); assay: SPR (Biacore), 37 C
T4 construct: also called ActRIIA MONOMER; ActRIIA monomer
T4 sequence (P27037 21-138 limits assumed): as the sequence (P27037 21-138) above

[3] = molecular target: T1, dimeric hActRIIB; assay: SPR (Biacore), 37 C
[4] = molecular target: T2, monomeric hActRIIB; assay: SPR (Biacore), 37 C
[5] = molecular target: T3, dimeric hActRIIA; assay: SPR (Biacore), 37 C, mAb captured on anti-hFc chip, receptor injected
Method: (§1) Kinetic characterization of A01 antibody lineage (A01 (naïve parent), B01, C01, D01, E01 and F01) binding to monomeric and dimeric hActRIIB and hActRIIA was performed using standard BIACORE®-based analysis at 37° C. In brief, antibodies were captured on anti-hFcIgG Biacore chips and different concentrations of dimeric and monomeric ActRIIB or ActRIIA were injected in duplicates over the captured antibody and control surface. To obtain kinetic rate constants the data were double referenced and fit to a 1:1 interaction model using BiaEvaluation software (GE Healthcare). The equilibrium binding constant KD was determined by the ratio of binding rate constants kd/kₐ

[6] = molecular target: T4, monomeric hActRIIA; assay: as above
Method: as §1

[7] = molecular target: T1, dimeric hActRIIB; assay: SPR (Biacore), 37 C, mAb captured on anti-hFc chip, receptor injected, 1:1 fit
Method: as §1

[8] = molecular target: T2, monomeric hActRIIB; assay: as above
Method: as §1

[9] = molecular target: T3, dimeric hActRIIA; assay: SPR (BIACORE), 37 C, series of concentrations (not printed on the sheet)
Method: (§2) FIGS. 1A-1N depict kinetic characterization of A01 lineage antibodies binding to hActRIIB and hActRIIA as determined by BIACORE®-based analysis at 37° C. Monomeric or dimeric hActRIIB or hActRIIA was […]. FIGS. 1A-1D depict characterization of antibody A01 (parent) binding to ActRIIB monomer (FIG. 1A), ActRIIB dimer (FIG. 1B), ActRIIA monomer (FIG. 1C), and ActRIIA dimer (FIG. 1D). FIGS. 1E and 1F depict characterization of antibody B01 binding to ActRIIB monomer (FIG. 1E) and ActRIIB dimer (FIG. 1F). FIGS. 1G-1H depict antibody C01 binding to ActRIIB monomer (FIG. 1G) and ActRIIB dimer (FIG. 1H). FIGS. 1I-1J depict antibody D01 binding to ActRIIB monomer (FIG. 1I) and ActRIIB dimer (FIG. 1J). FIGS. 1K-1L depict antibody E01 binding to ActRIIB monomer (FIG. 1K) and ActRIIB dimer (FIG. 1L). FIGS. 1M-1N depict antibody F01 binding to ActRIIB monomer (FIG. 1M) and ActRIIB dimer (FIG. 1N).
(§3) Kinetic characterization of A01 antibody lineage (A01 (naïve parent), B01, C01, D01, E01 and F01) binding to monomeric and dimeric hActRIIB and hActRIIA was performed using standard BIACORE®-based analysis at 37° C. […] The equilibrium binding constant KD was determined by the ratio of binding rate constants kd/kₐ

[10] = molecular target: T4, monomeric hActRIIA; assay: as above
Method: as §2, §3

Row | Kd [1] | koff [1] | kon [1] | Kd [3] | koff [3] | kon [3] | Kd [4] | koff [4] | kon [4] | binding result [5] | binding result [6] | Kd [7] | koff [7] | kon [7] | Kd [8] | koff [8] | kon [8] | Binder | other results
1 | 0.316 nM | 0.000106 s⁻¹ | 336000 M⁻¹ s⁻¹ | 0.727 nM | 0.000123 s⁻¹ | 170000 M⁻¹ s⁻¹ | 0.65 nM | 0.000291 s⁻¹ | 447000 M⁻¹ s⁻¹ |  |  |  |  |  |  |  |  | D02 (antibody, human IgG1, V domains shown, Human IgG) VH: QVQLVQSGAEVKKPGASVKVSCKASGYTFTSYRMHWVRQAPGQGLEWMGFIVPSGGSTSYAQKFQGRVTMTRDTSTSTVYMELSSLRSEDTAVYYCARVSMYAPEPMDVWGQGTTVTVSS VL: DIQMTQSPSSVSASVGDRVTITCRASQGISRWLAWYQQKPGKAPKLLIYAASSLQSGVPSRFSGSGSGTDFTLTISSLQPEDFATYYCQQAFSHPWTFGGGTKVEIK | Kd [2]: 18.6 nM; koff [2]: 0.00684 s⁻¹; kon [2]: 369000 M⁻¹ s⁻¹
2 | 1.78 nM | 0.000627 s⁻¹ | 353000 M⁻¹ s⁻¹ | 0.511 nM | 0.000112 s⁻¹ | 219000 M⁻¹ s⁻¹ | 22 nM | 0.0662 s⁻¹ | 3.02e+06 M⁻¹ s⁻¹ |  |  |  |  |  |  |  |  | A02 (antibody, human IgG1, V domains shown, Human IgG; also called A02 Parent) VH: QVQLVQSGAEVKKPGASVKVSCKASGYTFTSYGISWVRQAPGQGLEWMGWISPYNGNTNYAQKLQGRVTMTTDTSTSTAYMELRSLRSDDTAVYYCARVSMYAPEPMDVWGQGTTVTVSS VL: DIQMTQSPSSVSASVGDRVTITCRASQGISRWLAWYQQKPGKAPKLLIYAASSLQSGVPSRFSGSGSGTDFTLTISSLQPEDFATYYCQQAFSHPWTFGGGTKVEIK | 
3 | 0.338 nM | 0.000167 s⁻¹ | 495000 M⁻¹ s⁻¹ | 0.649 nM | 0.00021 s⁻¹ | 323000 M⁻¹ s⁻¹ | 1.1 nM | 0.001 s⁻¹ | 905000 M⁻¹ s⁻¹ |  |  |  |  |  |  |  |  | B02 (antibody, human IgG1, V domains shown, Human IgG) VH: QVQLVQSGAEVKKPGASVKVSCKASGYTFTGHKMHWVRQAPGQGLEWMGWINPASGWTNYAQKFQGRVTMTRDTSISTAYMELSRLRSDDTAVYYCARVSMYAPEPMDVWGQGTTVTVSS VL: DIQMTQSPSSVSASVGDRVTITCRASQGISRWLAWYQQKPGKAPKLLIYAASSLQSGVPSRFSGSGSGTDFTLTISSLQPEDFATYYCQQAFSHPWTFGGGTKVEIK | Kd [2]: 8.13 nM; koff [2]: 0.00593 s⁻¹; kon [2]: 729000 M⁻¹ s⁻¹
4 | 0.153 nM | 8.02e-05 s⁻¹ | 524000 M⁻¹ s⁻¹ | 0.333 nM | 9.64e-05 s⁻¹ | 289000 M⁻¹ s⁻¹ | 0.528 nM | 0.000515 s⁻¹ | 975000 M⁻¹ s⁻¹ |  |  |  |  |  |  |  |  | C02 (antibody, human IgG1, V domains shown, Human IgG) VH: QVQLVQSGAEVKKPGASVKVSCKASGYTFTSYNMAWVRQAPGQGLEWMGIIRPSVGSTSYAQKFQGRVTMTRDTSTSTVYMELSSLRSEDTAVYYCARVSMYAPEPMDVWGQGTTVTVSS VL: DIQMTQSPSSVSASVGDRVTITCRASQGISRWLAWYQQKPGKAPKLLIYAASSLQSGVPSRFSGSGSGTDFTLTISSLQPEDFATYYCQQAFSHPWTFGGGTKVEIK | Kd [2]: 26.4 nM
5 |  |  |  | 0.0226 nM | 1.04e-05 s⁻¹ | 459000 M⁻¹ s⁻¹ | 0.194 nM | 0.000203 s⁻¹ | 1.05e+06 M⁻¹ s⁻¹ |  |  |  |  |  |  |  |  | D03 (antibody, human IgG1, Human IgG) heavy: not shown light: DIQMTQSPSSVSASVGDRVTITCRASQGISRWLAWYQQKPGKAPKLLIYAASSLQSGVPSRFSGSGSGTDFTLTISSLQPEDFATYYCQQAFSHPWTFGGGTKVEIK | 
6 |  |  |  |  |  |  |  |  |  | no binding | no binding | 0.302 nM | 0.00025 s⁻¹ | 828000 M⁻¹ s⁻¹ | 2.19 nM | 0.00354 s⁻¹ | 1.61e+06 M⁻¹ s⁻¹ | D01 (antibody, human IgG1, kappa, V domains shown, Human IgG) VH: QVQLQESGPGLVKPSQTLSLTCTVSGGSIESGGYYWSWIRQHPGKGLEWIGGIYGSGSTYYNPSLKSRVTISVDTSKNQFSLKLSSVTAADTAVYYCARDSGIGYSYASSHGYYYYMDVWGKGTTVTVSS VL: EIVLTQSPATLSVSPGERATLSCRASQSVGSNLAWYQQKPGQAPRLLIYGASTRATGIPARFSGSGSGTEFTLTISSLQSEDFAVYYCQQYFHFPLTFGGGTKVEIKR | 
7 |  |  |  |  |  |  |  |  |  | no binding | no binding | 0.393 nM | 0.000246 s⁻¹ | 626000 M⁻¹ s⁻¹ | 3.64 nM | 0.0034 s⁻¹ | 1.09e+06 M⁻¹ s⁻¹ | B01 (antibody, V domains shown, Human IgG) VH: QVQLQESGPGLVKPSQTLSLTCTVSGGSILSGGYYWSWIRQHPGKGLEWIGGIYYSGKTYYNPSLKSRVTISVDTSKNQFSLKLSSVTAADTAVYYCARDSGIGYSYASSHGYYYYMDVWGKGTTVTVSS VL: EIVLTQSPATLSVSPGERATLSCRASQSVGSNLAWYQQKPGQAPRLLIYGASTRATGIPARFSGSGSGTEFTLTISSLQSEDFAVYYCQQYFHFPLTFGGGTKVEIK | 
8 |  |  |  |  |  |  |  |  |  |  |  | 1.21 nM | 0.000128 s⁻¹ | 106000 M⁻¹ s⁻¹ | 1150 nM | 0.198 s⁻¹ | 172000 M⁻¹ s⁻¹ | A01 (antibody, human IgG1, kappa, V domains shown, Human IgG from yeast libraries; also called A01 Parent; A01 (naïve parent)) VH: QLQLQESGPGLVKPSETLSLTCTVSGGSISSSSYAWGWIRQPPGKGLEWIGSIYYSGSTYYNPSLKSRVTISVDTSKNQFSLKLSSVTAADTAVYYCARDSGIGYSYASSHGYYYYMDVWGKGTTVTVSS VL: EIVLTQSPATLSVSPGERATLSCRASQSVGSNLAWYQQKPGQAPRLLIYGASTRATGIPARFSGSGSGTEFTLTISSLQSEDFAVYYCQQYFHFPLTFGGGTKVEIKR | binding result [9]: no binding; binding result [10]: no binding
9 |  |  |  |  |  |  |  |  |  | no binding | no binding | 0.236 nM | 0.000188 s⁻¹ | 797000 M⁻¹ s⁻¹ | 5.22 nM | 0.00712 s⁻¹ | 1.37e+06 M⁻¹ s⁻¹ | C01 (antibody, human IgG1, kappa, V domains shown, Human IgG) VH: QVQLQESGPGLVKPSQTLSLTCTVSGGSISSGGYFWSWIRQHPGKGLEWIGGIYYSGRTYYNPSLKSRVTISVDTSKNQFSLKLSSVTAADTAVYYCARDSGIGYSYASSHGYYYYMDVWGKGTTVTVSS VL: EIVLTQSPATLSVSPGERATLSCRASQSVGSNLAWYQQKPGQAPRLLIYGASTRATGIPARFSGSGSGTEFTLTISSLQSEDFAVYYCQQYFHFPLTFGGGTKVEIKR | 
10 |  |  |  |  |  |  |  |  |  | no binding | no binding | 0.376 nM | 0.000292 s⁻¹ | 777000 M⁻¹ s⁻¹ | 2.45 nM | 0.00415 s⁻¹ | 1.7e+06 M⁻¹ s⁻¹ | E01 (antibody, human IgG1, kappa, V domains shown, Human IgG) VH: QVQLQESGPGLVKPSQTLSLTCTVSGGSIGSGGYYWSWIRQHPGKGLEWIGGIYGSGSTYYNPSLKSRVTISVDTSKNQFSLKLSSVTAADTAVYYCARDSGIGYSYASSHGYYYYMDVWGKGTTVTVSS VL: EIVLTQSPATLSVSPGERATLSCRASQSVGSNLAWYQQKPGQAPRLLIYGASTRATGIPARFSGSGSGTEFTLTISSLQSEDFAVYYCQQYFHFPLTFGGGTKVEIKR | 
11 |  |  |  |  |  |  |  |  |  | no binding | no binding | 0.36 nM | 0.000216 s⁻¹ | 601000 M⁻¹ s⁻¹ | 3.32 nM | 0.00444 s⁻¹ | 1.34e+06 M⁻¹ s⁻¹ | F01 (antibody, human IgG1, kappa, V domains shown, Human IgG) VH: QVQLQESGPGLVKPSQTLSLTCTVSGGSIKSGGYYWSWIRQHPGKGLEWIGGIYPSGSTYYNPSLKSRVTISVDTSKNQFSLKLSSVTAADTAVYYCARDSGIGYSYASSHGYYYYMDVWGKGTTVTVSS VL: EIVLTQSPATLSVSPGERATLSCRASQSVGSNLAWYQQKPGQAPRLLIYGASTRATGIPARFSGSGSGTEFTLTISSLQSEDFAVYYCQQYFHFPLTFGGGTKVEIKR | 
